The record followed here is patent publication US20240026407A1, “MODIFICATION OF SAPONINS” (GLAXOSMITHKLINE BIOLOGICALS SA, priority 2020, published 2024).

The labels stand for the following.
B1: 1040 (protein, listed as Rhodopirellula baltica)
chain: MNEDGWQDRRQLPRFSWIRLAKGRSAELSSIPVRPLKMLLSILFLTVITVAASSSVSALEPQRLRCEYLENPTGIDAARTRLSWQVTSDQRGQSQIAYRLLVASSEEQLGSGVGDLWDSGKVKSDQTLFVEYAGKPLSSRQECFWKVQVWDGAGNATESEVASWSMGLLDQSDWSAEYISYRDDSPIHTDLSTLHLPAARQYRKEFSASKSIKRATVYATALGIYELHLNGQRVGDASFAPGWTDYRKRAYYNTYDVTNLVREGDNAIGAWVADGWYSGYVGFGLLTGMGPEKNGRSTYGKTPSFMSQLEIEFEDGTKQTIGTDTTWKVTGEGPIQEADLLMGESYDARREMVGWSEPGFDHDHWDDAILAKQNGQVTAAFYEFRNPTTTGAGVKKVGEQRDFGFKRPELEAFPGVPVRVTQEIPAKTVSKLEPGTFVFDLGQNFAGTIRLKIKGREGERIQLRYGEMLHPDGRLMTENLRKARATDYYTCKGNPDGEFYQPRFTFHGFQFVEVKRLSDSSEDAGKATDSQNVQTPPLDMVTGLVLHSDTPMASTFECSDPMVNQLFKNVLWTQRANFLDLPTDCPQRDERMGWTGDAQAYVATAAYNADIGAFYTKWLRELMESQRPSGAFPGYAPYPFQHGWDFGTAWADAGVICPWTIWQFYGDTRVIDDCWEPMTRFMRWRKQTSVNDLGVSHGNAWGDWLSQGEETPLDYIDTVYFAISARMMAEMAEATGRDEEAKLYREQRAATQAAFQAKYLNEDGSITVRTQTAQALALFADLVPAEQREATGKYLAKRLSENGNHMATGFLGTRPLLPVLSGSGQHDLATFLLQSREFPSWGYEISNGATTIWERWDSYTKEDAFGRHNAAMNSFSHYAFGAVCEWMFATLAGIQSDGPGFKRIVIRPTPPSPGSNAMHEPINWVKASYESIRGTIRSEWKMVDGRFHLNVTIPANTTATVYLPTNDANSITESGNALADTANVSLLRKETNVVALTVHSGSYEFLASSGIVPAKVSLKSSEPKDNSINPGEIDLTDATKLESWDFRNPQDLAKWGERKSVDIEQRNGSAYLVATGDDSQMAVRMTKPLEGKLVIELRASPSQNSTSQFYWAIPGRGFNGQQQTKRLLRQSDAVNAYLFAIPDALTVGKLRFDPFATYDEYANAGEMMIESISIYRLVD
B2: 1051 (protein)
chain: MDGGPLFLSWQCTGGLRQTAYEIHLTADDALVWESGKVATQSMHADAPAVEGARVRGSWKVRLWDENNCPGPWSGARFETGLSTGEWQGLWVAPETAPLDIPGDDAINAFARPNWERKQAEKEAAGKGAAEPYQPHRPASYLRKTFTAPSGRGRLYITAKGLYVAWLNGVRVGDMVLAPGSFTADKHLGAQTYDVTALLREGENELLIALGDGWYRSTSGVDGDRNLFGDTLGVLFQLEVDGKVVCVSDDTMQATQQGPIRQNDLQQGEVYDARLEGLLSGWHEVQTYRDALPVTGMNTVPIREREAFPGRLFTAPNGETVLDFGQNIAGYVEMTLTAHAGQKVLLTCGETLDENGNFTQENFQDRSRHNEGGTAQMLELICKEGVNHWKPSFTIMGFQYAKVETDADLTGAVFTAHAVYSDMAVTGSFTCGNKAVNRLVANSIWSQKGNFCDIPTDCPTRERAGWTGDMGVFIETGLTLMDCYPVVAKWLKECRLNQYPDGRMANIAPPNSRPGYMTPMLCMSAGWGDAAILVPYALYKRTGDRRILADNYEMMQRWYAFLLGRAQQTTEEQQSGEYAKYTVLNGLDYGEWCEPGVTPMQAMANPRKSVGTAYLAYSGRLLAEIAAVLGRQEEADAYRATADKAVKAYRAAFTEDGVIHSDRQCEYVRAIAFALLGEEESRAAATTLNQMVVDNGCHLNTGFLSTPFLCGVLAQYGYIDTAYRLLLQPEAPGWLYEVNKGANTVWETWTGIDAEGKPHESLNHYSYGAICGWLFGGVCGIHFTDGQLTIAPTPHKALGYAKAVYDSPAGRIESGWRYEGDTVTYEFTIPTNITAHIHLPDGRTRMLSAGTHRL
modifications: Subdoligranulum variabile
B3: 1050 (protein, listed as Streptomyces bottropensis)
chain: MNNAPYDLRIDTGGDQFAVSGPAPRLSWKPPSDTGHPAGYELECTVDGDAQPALRVAPGRHRFLPWPWAALGSGRQVEWRVRADGPGGPTPWSEWNAFEVGLLDEDWQARWISPAESGDPGYGKRPAHTLTARFEVRAGVRSARLYATALGLYEAYVNGERAGTAELSPGSTSYDRTLHAQASDVTAAVRAGGNLVEIVLSDGWYRGQVGAFRLPAGWGTVLGARAELHIAYEDGSRQVVRSDETWTSTRSAITRADLMDGQSTDFRAGRDTEQPVLVDRVEAAAIDWSPAPPVRVVASRPAQSVKQLRDGLWIADFGQNASGRLAVGDLGPAGTRTVIDYGEHVGPDGDLTTAHLDSSRPGEEPIPFVQRDEVVSMGRGETFEPRHTVHGFQYARIRRDGAPLDPASLTMRVVHTDLRRAGSFACSDDDLNRLHEIADWSFRGNAVDVPTDCPTRERLAWTGDYQVFAPTATRLYDVLGFSRKWLRSVRDDQLPDGRIANFSPDGRRIKHHLDDQFAMMTGSAGWGDAIVAVPWELYQSYGDQEILAENWEAMVRWVEWALRTARTARHHSRRERSAEPRPHERYLWDGSFHWGEWTEPRTKTADGTRIDPVKTDPVAWFMADKGEVGTAFLYRSTSTLADVARVLGRTEDAARYAETAEHVRDAWRTEFLTPDGRTTGDTQAGYVRALSLGLVPAELRPAAAARLVELIRSAGTHLGTGFLATGDLLPVLADTGHTDMAYELLLRRTAPSWLYMLDHGATTIWEDWEGIDENGDAHDSLNHYSKGAVIRFLHTHTLGLRQAPGSVAWESVEVAPVPHPSLTWARGTHESPQGTIAVEWRTTGDELTLAVDVPPATTARVVFPDGTTETATTGTFRATRRITCASSARSARAPGDEPLVRSEGATD
B4: 1026 (protein, listed as Pseudarthrobacter chlorophenolicus)
chain: MTAPARLRAEHLREAMGLAVREPRLSWTPPAATAGQTAYRIMADNGWDTGRIASAESGGIAYGGPALDSRSRFDWRVRTWNVDSDGTETASDWSESMPVELGLLHPSDWTGQWISPGEEAVSPPGERPGYALTRTFTLPAAPDKARAYATAHGIYELFINGQRVGDQQLTPGSTSYNTTLQVQAYDVTALLTAGLNTIRAVLTDGWYRGTFGYTRDADMYGTHTAFLAQLELESEAGRQVIGTDPSWLVSATEVISADLMAGQRVDFRAYDTGSAPSAGKAPGVRAAVVRPGSFGALTGPLAPPTRVTEELAPVSITRLRNGHQVVDFGQNIHGWVRLAALGGPGETVTLEYGEALGRDGDVTRDHLRPHDFRVPGAFLDAGQVDTVTASGAPGEVFEPRHTSHGFQFVSVRGLATDLRPRDVTACLVRTDLERIGTFHCSDERLNKLHGIVEWSFLGNSCEVPTDCPQREKAGWTGDWQLFVPTAAYLYDVTGFTRKWLRDVRADQWDNGVIANISPSPGPAITSAEFMGFTNGSSGWGDAIVMVPWEAYLATGDASILAENWDAMNRWLGFVRTTAETRRHAARATQAPVPADHEKYLWDTGFHFGEWMEPDGPGPDLFASRTADNGIVATAYYRHTTDLMARIARALGLAAEAADLARLSDAIRDAWATEYLDESGRVTVASQANCVRALAFQLAGTEHRAAVTTQLVELIRDAGTHLGTGFLATPYLLPVLADHGHLGLAYELLMQDSEPSWLAMVDRGATTVWELWNGLDAGGAPHQSLNHYSKGAVVSFLHRYTAGLRQAPGSAGWNRIIIEPRPGAGLTSAATSHQGPHGPITVAWTLSTDALGPDEMTADGVLTLTADIPSGTTAEILLPGQPAAVVGPGHHVFSAATGGDTAHPELMRSTL
B5: 1013 (protein, listed as Chloroflexus aurantiacus)
chain: MSYEQLSTSQSQVSRLIVRVEHYQSTLGIGNPCPRLSWIIETNATNWLQTAYEIECYTKDGRVRGRTGWIHSPESVLVPWPFEPLTSREQVLVRVRVRDNKGDISPWSEMLPIEAGLLKVGDWSARFITPDWDDDILKPQPCPMLRHEFRVDNDVIQARLYITSLGVYEAQINGVVVGDQVLAPGWTVYDRRLRYQTFDVTMHLREGINAIGVILGDGWFRGRLGFGGGRRNIYGNRLAVLAQLEITYRDGSTQQVCTDQTWRSTTGPILASDIYDGEIYDARLELPNWSKPGFADHQWSGVRLLEWDFSTLVAPISPPIRRIEMVLPVAIFSSPSGRTIVDFGQNLVGRVRLTVSGPPGQMITVRHAEVLEGGELSTRPLRFAAATDRYILRGDGTEVWEPRFTFHGFRYAEIDGWPGELRTTDIVAVVIHSDMERIGWFTCSDQLLNRFHENVVWSMRGNFLDVPTDCPQRDERLGWTGDIQVFAPTAVFLYDVAGLLQSWLIDLAIEQEKLGGAVPHVVPNVLGPSAAGAAAWGDAATVVPWVLFQRYGDKRVLETQYKSMRSWVDYIATKAGHTYLWDRGFQFGDWLDPTAPPDKPGQARTDKAIVASAYFIFSATLVAKAAHVLGYDADADFYADLAHKARFAFAKEYITPAGRLMCDTETAYALALVFDLFPTDTQRRYAGERLAALVRDSGYHIRTGFVGTPLICDALCSVGHCRVAYRLLMQRECPSWLYPVTMGATTIWERWDSMLPDGSINPGEMTSFNHYALGAVADWMHRTIGGLIPVEPGYRRIEFRPQPGGEIVYARVSHRTPYGLAECFWRIEEGVFYLRVVVPPNTTAQVFLPGRDDQPLDVGSGIWQWSIPCQDTATRGSYTVDDLVDEIIDDEVAREAVNQVLSQVDAWRLFGNLLLNERSASLREAIQALPNSEIVIERLNALLTRIPKKDGI

The first experiment can be described thus: Experiment 6-1: screening of rhamnosidases for derhamnosylation of saponins in treated bark extract (2%), desglucosyl-QS-17 2134 to QS-21 1988 (PAR %). The format is biochemical, Quillaja saponaria. The note with it: TBE 2%, pH 7.5, 30 degC, 18 h; TIC peak area ratio percent, LCMS/MS; negative controls 2.719, 2.158.
Turning to B1, the “Peak75 (PAR %)” value is given as 2.372%.

With B2, the “Peak75 (PAR %)” value worked out at 2.426%.

Regarding B3, the “Peak75 (PAR %)” value was determined as 2.528%.

Take B4: the “Peak75 (PAR %)” value was 2.501%.

In the case of B5, the “Peak75 (PAR %)” value stood at 2.388%.

Another experiment is described as follows: Experiment 6-1: specificity of rhamnosidases towards other rhamnose residues (C3 saccharide rhamnose, C28 saccharide rhamnose). Format: biochemical, Quillaja saponaria. The following applies: TBE 2%, pH 7.5, 30 degC, 18 h; LCMS/MS; negative controls 0.18, 0.17.
Turning to B1, the “ratio PP/QS-21” value is 0.18.

With B2, the “ratio PP/QS-21” value is recorded as 0.16.

As for B3, the “ratio PP/QS-21” value is 0.17.

As for B4, the “ratio PP/QS-21” value was determined as 0.17.

As for B5, the “ratio PP/QS-21” value is on record as 0.17.

A short description of a further experiment: Experiment 6-1: screening of rhamnosidases for derhamnosylation of saponins in treated bark extract (2%), QS-17 2310 to QS-18 2164 (PAR %). Format: biochemical, Quillaja saponaria. The note with it: TBE 2%, pH 7.5, 30 degC, 18 h; TIC peak area ratio percent, LCMS/MS; negative controls 3.061, 2.429.
Turning to B1, the “Peak57 (PAR %)” value is 3.084%.

Regarding B2, the “Peak57 (PAR %)” value was found to be 2.918%.

B3: the “Peak57 (PAR %)” value is on record as 2.305%.

On to B4, for which the “Peak57 (PAR %)” value is recorded as 2.755%.

Take B5: the “Peak57 (PAR %)” value stood at 2.576%.

The next experiment in a line: Experiment 6-1: screening of rhamnosidases for derhamnosylation of saponins in treated bark extract (2%), QS-17 2296 to QS-18 2150 (PAR %). The format is biochemical, Quillaja saponaria. The following applies: TBE 2%, pH 7.5, 30 degC, 18 h; TIC peak area ratio percent of rhamnosylated starting saponin to derhamnosylated product, LCMS/MS; negative controls 4.876, 5.225.
Take B1: the “QS-17 (PAR %)” value turned out to be 5.244%.

On to B2, for which the “QS-17 (PAR %)” value amounted to 5.289%.

Consider B3, for which the “QS-17 (PAR %)” value was found to be 5.251%.

On to B4, for which the “QS-17 (PAR %)” value was 5.271%.

As to B5, the “QS-17 (PAR %)” value was 5.272%.
